Experiment [1] deals with T1, SARS-CoV-2 membrane protein (SARS-CoV-2, UniProt P0DTC5 1-222). Kind of experiment: SPR.
Experiment [2] has as its target T1, SARS-CoV-2 membrane protein. Kind of experiment: SPR. This is another data set of the same source. On the technique in general: Surface plasmon resonance follows binding to a sensor surface in real time, without labels.
A further experiment deals with human ACE2 (human, UniProt Q9BYF1 18-740). Description: SPR.
The target in another experiment is SARS-CoV-2 S1 RBD (SARS-CoV-2, UniProt P0DTC2 319-537). Description: competition.
For experiment [3], the target named is T2, SARS-CoV-2 S1 protein (SARS-CoV-2, UniProt P0DTC2 16-685). Kind of experiment: SPR.
The target in experiment [4] is T3, SARS-CoV-2 S protein trimer (SARS-CoV-2, UniProt P0DTC2 14-1208). Description: SPR.
For experiment [5], the target named is T2, SARS-CoV-2 S1 protein. Description: SPR. The source holds these as a separate data set.
Experiment [6] addresses T3, SARS-CoV-2 S protein trimer. Kind of experiment: SPR. This is another data set of the same source.
For a further experiment, the target named is ACE2 (human, UniProt Q9BYF1 18-740). Description: SPR.
ACE2, sequence (Q9BYF1 18-740): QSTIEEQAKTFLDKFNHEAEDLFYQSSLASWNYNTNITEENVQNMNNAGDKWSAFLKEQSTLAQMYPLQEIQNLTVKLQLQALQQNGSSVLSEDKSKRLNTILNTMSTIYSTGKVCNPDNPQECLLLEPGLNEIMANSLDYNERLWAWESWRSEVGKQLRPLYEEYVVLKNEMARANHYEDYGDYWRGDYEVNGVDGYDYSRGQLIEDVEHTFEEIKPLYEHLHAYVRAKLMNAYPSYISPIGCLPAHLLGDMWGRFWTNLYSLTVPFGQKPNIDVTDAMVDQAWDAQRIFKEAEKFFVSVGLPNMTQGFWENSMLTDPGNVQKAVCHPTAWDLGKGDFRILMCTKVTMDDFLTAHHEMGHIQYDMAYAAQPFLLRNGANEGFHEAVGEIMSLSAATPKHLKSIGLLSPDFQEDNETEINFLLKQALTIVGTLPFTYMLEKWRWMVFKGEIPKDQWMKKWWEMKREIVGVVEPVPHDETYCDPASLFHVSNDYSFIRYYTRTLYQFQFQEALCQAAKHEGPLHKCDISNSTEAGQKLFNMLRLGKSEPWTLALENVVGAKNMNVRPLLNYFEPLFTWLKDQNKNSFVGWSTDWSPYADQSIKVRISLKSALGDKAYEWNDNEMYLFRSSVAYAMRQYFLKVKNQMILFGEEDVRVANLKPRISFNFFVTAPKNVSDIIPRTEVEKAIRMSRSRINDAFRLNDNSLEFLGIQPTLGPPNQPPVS
In experiment [7] the target is T1, SARS-CoV-2 membrane protein. Description: SPR. This is another data set of the same source.

Substitutions are numbered along the chain they refer to. Like-named read-outs stand apart in the source and are kept apart here. Bounds are passed on as bounds.

human ACE2, sequence (Q9BYF1 18-740): as above

B1: 10-20 (antibody, V domains shown)
VH: EVQLVESGGGLVQPGGSLRLSCAASGRTIRTMGWFRQAPGKEREFVATINSRGITNYADSVKGRFTISADNSKNTAYLQMNSLKPEDTAVYYCTTERDGLLWFRELFRPSWGQGTLVTVSS
As a reminder, the Kd is the equilibrium constant for the complex coming apart. With B1, the Kd in experiment [1] is 66 nM.

B2: 9-11 (antibody, V domains shown)
VH: EVQLVESGGGLVQPGGSLRLSCAASGRTFGRRAMGWFRQAPGKEREFVAGISRGGGTNYADSVKGRFTISADNSKNTAYLQMNSLKPEDTAVYYCAAKGIWDYLGRRDFGDWGQGTLVTVSS
Turning to B2, the dissociation constant (Kd) in [2] was found to be 0.593 nM.

B3: 3-7 (antibody, V domains shown)
VH: EVQLLESGGGLVQPGGSLRLSCAASGFMFGNYAMSWVRQAPGKGLEWVAAISGSGGSTYYADSVKGRFTISRDNSKNTLYLQMNSLRAEDTAVYYCAKDRGYSSSWYGGFDYWGQGTLVTVSS
VL: DIQMTQSPSSLSASVGDRVTITCRASQSIGRYLNWYQQKPGKAPKLLIYASSSLQSGVPSRFSGSGSGTDFTLTISSLQPEDFATYYCQQSYSLPRTFGQGTKVEIK
With B3, in the experiment with human ACE2, the Kd was determined as 0.326 nM.

B4: 2-9 (antibody, V domains shown)
VH: EVQLLESGGGLVQPGGSLRLSCAASGFTFPRYAMSWVRQAPGKGLEWVSTISGSGSTTYYADSVKGRFTISRDNSKNTLYLQMNSLRAEDTAVYYCARLIDAFDIWGQGTLVTVSS
VL: B3 VL with S28R, R31T, S51A, S53N, Q55E, S56G, S91N, L94T, P95T, R96W
By IC50 is commonly meant the concentration that gives 50% inhibition. For the molecule B4, the IC50 with SARS-CoV-2 S1 RBD stood at 4.69 nM.

B5: 10-27 (antibody, V domains shown)
VH: EVQLVESGGGLVQPGGSLRLSCAASGRTFRRYSMGWFRQAPGKEREFVASITPGGNTNYADSVKGRFTISADNSKNTAYLQMNSLKPEDTAVYYCASRRRWLTPYIFWGQGTLVTVSS
As to B5, the dissociation constant Kd in [2] is 5.7 nM.

B6: 2-2 (antibody, V domains shown)
VH: EVQLLESGGGLVQPGGSLRLSCAASGFTFSRHAMNWVRQAPGKGLEWVSGISGSGDETYYADSVKGRFTISRDNSKNTLYLQMNSLRAEDTAVYYCARDLPASYYDSSGYYWHNGMDVWGQGTLVTVSS
VL: DIQMTQSPSSLSASVGDRVTITCRASQTINTYLNWYQQKPGKAPKLLIYSASTLQSGVPSRFSGSGSGTDFTLTISSLQPEDFATYYCQQSYSTFTFGQGTKVEIK
B6 showed an IC50 with SARS-CoV-2 S1 RBD of 1.26 nM. For the same molecule, the results for the dissociation constant (Kd) (in the experiment with SARS-CoV-2 S1 protein [3]; in experiment [4]) were 74 nM and 0.143 nM, respectively.

B7: 2-6 (antibody, V domains shown)
VH: EVQLLESGGGLVQPGGSLRLSCAASGFTFSNYPMNWVRQAPGKGLEWVSTISGSGGNTFYADSVKGRFTISRDNSKNTLYLQMNSLRAEDTAVYYCVRHDEYSFDYWGQGTLVTVSS
VL: DIQMTQSPSSLSASVGDRVTITCRASQSIDTYLNWYQQKPGKAPKLLIYAASALASGVPSRFSGSGSGTDFTLTISSLQPEDFATYYCQQSYSAPPYTFGQGTKVEIK
As for B7, the Kd in the experiment with SARS-CoV-2 S1 protein [5] was 7.2 nM; in experiment [6] it was less than 0.036 nM; with SARS-CoV-2 S1 protein [3], 7.2 nM; in [4], 0.036 nM. In the experiment with SARS-CoV-2 S1 RBD, this molecule came in with a 50% inhibitory concentration (IC50) of 0.754 nM.

B8: 2-5 (antibody, V domains shown)
VH: EVQLLESGGGLVQPGGSLRLSCAASGFTFSDFAMAWVRQAPGKGLEWVSAISGSGDITYYADSVKGRFTISRDNSKNTLYLQMNSLRAEDTAVYYCAREADGLHSPWHFDLWGQGTLVTVSS
VL: B7 VL with D30H
In the experiment with SARS-CoV-2 S1 RBD, B8 returned a concentration for half-maximal inhibition (IC50) of 3.83 nM. Moreover, the Kd with SARS-CoV-2 S1 protein [3] came to 0.223 nM; in experiment [4], 1.7 nM.

B9: ACE2 variant antibody 4-49 (VHH)
VHH: EVQLVESGGGLVQPGGSLRLSCAASGRTFGDYIMGWFRQAPGKERESVAAINWSAGYTAYADSVKGRFTISADNSKNTAYLQMNSLKPEDTAVYYCARASPNTGWHFDHWGQGTLVTVSS
With B9, the dissociation constant Kd with ACE2 stood at 2.3 nM. In other words, the single-digit nanomolar range.

B10: 10-28 (antibody, V domains shown)
VH: EVQLVESGGGLVQPGGSLRLSCAASGSIFSIGMGWFRQAPGKEREFVARIWWRSGATYYADSVKGRFTISADNSKNTAYLQMNSLKPEDTAVYYCAAISIFGRLKWGQGTLVTVSS
As for B10, the Kd in [7] and in [2] was 5.6 nM in each case.

The record behind these values is patent publication US20210355194A1 (published 2021).
